Reference: patent US20190183966A1

Target: human FGF21 receptor (FGFR1) stably expressed on PathHunter U2OS cells (human) (UniProt P11362)
Assay: cell-based or functional assay

human FGF21 receptor (FGFR1) stably expressed on PathHunter U2OS cells (human), sequence (P11362 22-822): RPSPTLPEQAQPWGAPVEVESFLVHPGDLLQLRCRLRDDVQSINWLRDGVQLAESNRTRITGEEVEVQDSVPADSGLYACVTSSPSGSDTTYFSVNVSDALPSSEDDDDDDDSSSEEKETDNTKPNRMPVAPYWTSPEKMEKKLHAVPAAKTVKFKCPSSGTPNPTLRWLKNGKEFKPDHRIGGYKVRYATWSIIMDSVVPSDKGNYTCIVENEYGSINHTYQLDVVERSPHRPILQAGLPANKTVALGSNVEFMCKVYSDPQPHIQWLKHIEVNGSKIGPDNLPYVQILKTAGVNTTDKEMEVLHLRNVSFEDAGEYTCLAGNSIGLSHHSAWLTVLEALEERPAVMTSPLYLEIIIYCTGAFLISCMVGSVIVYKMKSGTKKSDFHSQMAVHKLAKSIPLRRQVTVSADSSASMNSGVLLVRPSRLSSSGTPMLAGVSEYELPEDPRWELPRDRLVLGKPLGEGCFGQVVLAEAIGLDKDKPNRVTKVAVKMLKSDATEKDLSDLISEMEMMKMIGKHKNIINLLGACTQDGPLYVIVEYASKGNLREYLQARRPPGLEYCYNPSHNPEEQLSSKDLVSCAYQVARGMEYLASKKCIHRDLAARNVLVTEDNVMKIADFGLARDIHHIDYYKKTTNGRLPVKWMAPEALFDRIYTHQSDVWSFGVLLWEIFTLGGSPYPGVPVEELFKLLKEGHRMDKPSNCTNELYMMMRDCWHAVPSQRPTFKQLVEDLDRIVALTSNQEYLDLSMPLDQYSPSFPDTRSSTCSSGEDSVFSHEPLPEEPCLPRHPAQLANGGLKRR

EC50, recruitment of the co-receptor beta-Klotho	Substance
0.13 µg/mL	VitD-(25)-PEG2K-FGF21 (from UniProt Q9NSA1 32-209) (ligand)
0.16 µg/mL	FGF21 protein with I3C substitution and His6 tag (from UniProt Q9NSA1 32-209) (ligand)
0.4 µg/mL	VitD-(3)-PEG2K-FGF21 (from UniProt Q9NSA1 32-209) (ligand)
